Experimental data from the supplement of paper PMC9732359.
± gives the uncertainty stated by the source.

Experiment: protein stability index of a GFP-peptide fusion (yeast GPS) (PSI 1-4); higher = more stable; sorted into four equal gates, so the index is relative within each strain
Procedure, shortened: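 For each peptide, the protein stability index sums the read frequency in every gate after multiplying it by the gate number. Read frequencies came from plasmids that were PCR-amplified from each gate and Illumina-sequenced, with reads assigned to strains by barcodes. The gates were four equal bins of GFP/Cherry fluorescence ratio applied to mid-log yeast in leucine-free medium carrying a pooled library of tiled 17-residue yeast protein peptides fused downstream of GFP on a Cherry-expressing plasmid.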

| Sequence | protein stability index (doa10∆) | protein stability index (pdr5∆) | protein stability index (san1∆) | protein stability index (ubr1∆) |
| --- | --- | --- | --- | --- |
| ILYTSKIVFILDSDSEN [RRI2] | 1.76 ± 0.065 | 1.88 ± 0.047 | 1.43 ± 0.09 | 1.71 ± 0.037 |
| LAGVLYESRNVAKRRFE [RRP6] | 2.76 ± 0.066 | 3.12 ± 0.061 | 2.93 ± 0.077 | 3.12 ± 0.047 |
| TERHIQVGDGLEILIVT [PRE7] | 2.05 ± 0.067 | 1.97 ± 0.07 | 2.63 ± 0.11 | 3.12 ± 0.065 |
| NEYYPMCEQALSALFTI [YCS4] | 2.2 ± 0.062 | 2.65 ± 0.088 | 2.47 ± 0.077 | 2.39 ± 0.045 |
| VLETHESGIKPYFEQKI [RPT6] | 2.33 ± 0.21 | 2.29 ± 0.28 | 2.58 ± 0.065 |  |
| PQEESVSPNISSASPSA [SIR3] | 2.99 ± 0.048 | 3.15 ± 0.046 | 3.01 ± 0.034 | 3.03 ± 0.028 |
| SLGHQTSLITAVYGPRS [MTR3] | 2.54 ± 0.052 | 2.24 ± 0.056 | 2.63 ± 0.061 | 1.81 ± 0.053 |
| DPDNTSFSDENSDDFFM [ESC2] | 2.31 ± 0.13 | 2.39 ± 0.11 | 2.54 ± 0.09 | 1.5 ± 0.088 |
| KAAGLTAAYARTIGIAV [RPL13A] | 1.56 ± 0.077 | 1.46 ± 0.059 | 1.22 ± 0.11 | 1.38 ± 0.089 |
| PKSGIDIFVYLTYDKDL [MTR3] | 1.9 ± 0.062 | 1.58 ± 0.052 | 1.78 ± 0.11 | 1.7 ± 0.053 |
| DAGSNQYYVTQHDKMVD [SWI1] | 3.04 ± 0.058 | 2.99 ± 0.046 | 2.95 ± 0.068 | 2.74 ± 0.045 |
| KELNTERQIFLEACIVR [CDC53] | 2.09 ± 0.048 | 2.23 ± 0.072 | 2.5 ± 0.056 | 2.57 ± 0.047 |
| EDKVFASKGRTKIDMPI [BRN1] |  |  | 2.59 ± 0.26 |  |
| YSILGDRFKYRSVDRAG [POP4] |  | 2.93 ± 0.23 | 3.45 ± 0.13 |  |
| FQNSYKPALKVSKEGLY [YMR129W/POM152] | 2.42 ± 0.22 | 3.12 ± 0.11 | 3.02 ± 0.082 | 3.07 ± 0.1 |
| FLKDADVECIKAKSHFT [YJL039C/NUP192] | 3.11 ± 0.13 | 3.2 ± 0.14 | 2.91 ± 0.089 | 2.98 ± 0.059 |
| FNAIDLARHLPAELDLR [RPC82] | 2.46 ± 0.09 | 2.56 ± 0.076 | 2.29 ± 0.083 | 2.99 ± 0.11 |
| LQKSSKSMITSEGEQKS [YAR002W/NUP60] | 2.84 ± 0.044 | 2.97 ± 0.047 | 2.85 ± 0.04 | 3.06 ± 0.046 |
| LLGYTGIPTDKGPRFRK [PRE8] | 2.81 ± 0.18 | 3.02 ± 0.14 | 2.66 ± 0.066 | 2.98 ± 0.11 |
| PARSSSLRSNVVVAETS [YAR002W/NUP60] | 2.2 ± 0.04 | 2.62 ± 0.04 | 2.19 ± 0.058 | 2.58 ± 0.035 |
| FNRTKGKMVRAQDVALA [PRP8] | 1.86 ± 0.21 | 1.76 ± 0.13 |  | 1.06 ± 0.096 |
| GELKRGNESVKPQFENH [MED11] | 3.34 ± 0.18 | 3.21 ± 0.089 | 2.98 ± 0.11 | 2.97 ± 0.16 |
| QSQPIANQSATSTPPPP [SNF5] | 2.82 ± 0.044 | 2.66 ± 0.037 | 2.61 ± 0.038 | 2.63 ± 0.034 |
| VQARDNSQVFGVARIYA [RPS14B] | 2.39 ± 0.074 | 2.3 ± 0.054 | 2.78 ± 0.047 | 2.91 ± 0.059 |
| SAQSIASAKSVRSGVSK [YAR002W/NUP60] | 2.88 ± 0.072 | 2.93 ± 0.092 | 3 ± 0.069 | 2.96 ± 0.057 |

| Sequence | protein stability index (doa10∆) | protein stability index (pdr5∆) | protein stability index (san1∆) | protein stability index (ubr1∆) |
| --- | --- | --- | --- | --- |
| SILESSMFLRIDYSNSQ [RGR1] | 2.42 ± 0.083 | 2.14 ± 0.064 | 1.59 ± 0.095 | 2.41 ± 0.063 |
| DFNMKLAINAKTITSGL [RPB2] | 2.99 ± 0.087 | 3.06 ± 0.086 | 2.76 ± 0.061 | 2.99 ± 0.05 |
| PMNAPTPAMIPYPGSPM [DSN1] | 2.79 ± 0.044 | 2.76 ± 0.05 | 2.99 ± 0.042 | 3.01 ± 0.034 |
| TEGCIGLSQTEAFGNIK [MCD1] | 2.61 ± 0.058 | 2.61 ± 0.076 | 2.81 ± 0.093 | 2.56 ± 0.072 |
| SERIVDCIIRLPVKWET [FAS1] | 2.3 ± 0.089 | 1.97 ± 0.083 | 1.75 ± 0.12 | 2.62 ± 0.056 |
| EQQVAEEATTEEAGEEE [RPS0A] | 2.89 ± 0.14 | 2.82 ± 0.24 | 2.6 ± 0.19 |  |
| FDKLLNIPRRELKINLP [SRB4] | 2.57 ± 0.074 | 2.6 ± 0.053 | 2.74 ± 0.071 | 2.12 ± 0.061 |
| EKKPASKAPAEKKPAAK [HTB1] | 3.13 ± 0.08 | 3.19 ± 0.063 | 3 ± 0.059 | 3.11 ± 0.054 |
| IYLSQNELTDAIALAVR [RPN1] | 2.58 ± 0.045 | 2.67 ± 0.052 | 2.88 ± 0.039 | 2.59 ± 0.032 |
| LVQLSTMETKTLPEKKQ [SIR4] | 2.88 ± 0.063 | 2.9 ± 0.069 | 2.72 ± 0.052 | 2.99 ± 0.059 |
| EQERKELEKYNELERNR [SMC3] | 3.14 ± 0.14 | 3.05 ± 0.18 | 3.2 ± 0.11 | 3.24 ± 0.091 |
| AFRTIESKSDDNSATSY [RRI1] | 3.06 ± 0.079 | 3.26 ± 0.079 | 3.15 ± 0.053 | 3.34 ± 0.091 |
| LCMDSSYIGTIIVKDKS [POP1] | 1.2 ± 0.091 | 1.49 ± 0.048 | 1.13 ± 0.11 | 1.28 ± 0.089 |
| DVVMKATEPQMVLFNIY [PRP8] | 2.03 ± 0.046 | 1.76 ± 0.049 | 1.58 ± 0.078 | 1.77 ± 0.043 |
| PGRIDRKILFENPDLST [RPT2] |  | 3.52 ± 0.28 | 3.35 ± 0.14 | 3.37 ± 0.056 |
| MKNPDVEFCGYSIPHPS [RPC19] | 2.81 ± 0.082 | 3.11 ± 0.064 | 2.94 ± 0.049 | 3.04 ± 0.085 |
| GVPNYLVQLEPHLFVNG [SSN2] | 1.96 ± 0.069 | 1.97 ± 0.063 | 1.94 ± 0.084 | 1.96 ± 0.12 |
| PFPQYPAGMNETPKSNN [ITC1] | 2.7 ± 0.1 | 2.8 ± 0.14 | 2.75 ± 0.087 | 3.01 ± 0.089 |
| ERKEREDFQKRQQKLLE [SWI1] | 3.27 ± 0.073 | 3.32 ± 0.06 | 3.34 ± 0.049 | 3.2 ± 0.048 |
| GLIPADATFAGHSLGEY [FAS1] | 3.01 ± 0.087 | 3.21 ± 0.06 | 3.08 ± 0.11 | 3.03 ± 0.059 |
| NSLTKYPDLKAFHNNLK [MED1] | 2.9 ± 0.11 | 3.16 ± 0.089 | 2.89 ± 0.092 | 2.93 ± 0.062 |
| ATLNYIDKNHGFERLTV [SRB7] |  | 3.28 ± 0.15 |  | 3.49 ± 0.13 |
| FSFGQNNNNTNTQPSAS [YGR119C/NUP57] | 2.87 ± 0.071 | 2.61 ± 0.069 | 2.82 ± 0.06 | 2.78 ± 0.043 |
| PGVNREINSEMCHIVRK [GRR1] | 3.01 ± 0.096 | 3.05 ± 0.082 | 3.35 ± 0.059 | 3.12 ± 0.052 |
| DVKSSDSLKLNSKPVEL [YJL041W/NSP1] | 3.27 ± 0.098 | 3.09 ± 0.12 | 3.1 ± 0.14 | 3.23 ± 0.12 |
